These results are taken from US20230374071A1, “COMPOSITIONS FOR INDUCING URINARY VOIDING AND DEFECATION” (Dignify Therapeutics, LLC, priority 2020, published 2023).

What all share (test): cell-based or functional assay
For assay [1], the target named is T1, human neurokinin 1 receptor (human, UniProt P25103 1-407).
Assay [2] concerns the target T2, human neurokinin 2 receptor (human, UniProt P21452 1-398).
T2 sequence (looked up): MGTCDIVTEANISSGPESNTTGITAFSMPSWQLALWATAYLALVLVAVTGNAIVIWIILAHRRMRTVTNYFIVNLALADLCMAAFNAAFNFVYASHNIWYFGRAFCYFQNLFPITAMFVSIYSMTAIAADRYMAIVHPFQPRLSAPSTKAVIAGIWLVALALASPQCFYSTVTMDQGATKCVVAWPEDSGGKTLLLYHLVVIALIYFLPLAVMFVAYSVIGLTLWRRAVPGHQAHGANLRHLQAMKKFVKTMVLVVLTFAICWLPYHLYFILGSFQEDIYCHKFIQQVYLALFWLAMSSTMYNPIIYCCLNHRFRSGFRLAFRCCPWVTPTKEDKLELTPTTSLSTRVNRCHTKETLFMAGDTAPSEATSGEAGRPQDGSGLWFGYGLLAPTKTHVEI

The target of assay [3] is T1, human neurokinin 1 receptor. The source holds these as a separate data set.
The target of assay [4] is T2, human neurokinin 2 receptor. The source holds these as a separate data set.

Starred links: 1 amine or outer side, 2 acyl side, 3 side chain; linkers in the order of their positions; H or OH if unused. Non-standard residues stand in square brackets, D forms with d. No end group written: not given here. gc = gamma constrained Gly-(R-gamma-lactam)-Leu moiety, (S)-2-((R)-3-amino)-2-oxopyrrolidin-1-yl)-4-methylpentanoyl, between Val and the C-terminal residue, CC(C)C[C@@H](C(=O)[*:2])N1CC[C@@H](N[*:1])C1=O; Nle = CCCC[C@H](N)C(=O)O; βAla = NCCC(=O)O

T1 sequence (P25103 whole entry): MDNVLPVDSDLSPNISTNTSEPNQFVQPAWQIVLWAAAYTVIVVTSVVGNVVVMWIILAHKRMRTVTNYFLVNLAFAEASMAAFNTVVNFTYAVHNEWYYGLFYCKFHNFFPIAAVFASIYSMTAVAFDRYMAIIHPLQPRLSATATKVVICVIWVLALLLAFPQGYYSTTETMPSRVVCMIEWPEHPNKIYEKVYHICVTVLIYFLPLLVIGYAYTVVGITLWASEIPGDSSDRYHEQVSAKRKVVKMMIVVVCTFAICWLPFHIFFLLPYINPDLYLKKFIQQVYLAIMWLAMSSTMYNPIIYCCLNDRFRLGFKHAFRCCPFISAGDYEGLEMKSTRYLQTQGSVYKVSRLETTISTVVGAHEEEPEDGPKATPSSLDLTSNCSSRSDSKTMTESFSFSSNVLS

B1: Compound J (Lys-Asp-Ser-Phe-Val-(β-Ala)-Leu-Nle-NH2) (peptide)
peptide: KDSFV[βAla]L[Nle]-NH2
modifications: N-terminus assumed
SMILES: CCCC[C@H](NC(=O)[C@H](CC(C)C)NC(=O)CCNC(=O)[C@@H](NC(=O)[C@H](Cc1ccccc1)NC(=O)[C@H](CO)NC(=O)[C@H](CC(=O)O)NC(=O)[C@@H](N)CCCCN)C(C)C)C(N)=O
As to B1, in assay [1], the “hNK1R pEC50 (intracellular calcium mobilization, FLIPR, CHO cells)” value came out at 6.52. In assay [2], the NK2R/NK1R selectivity ratio is 23 fold and the “hNK2R pEC50 (intracellular calcium mobilization, FLIPR, CHO cells)” value worked out at 7.88. Moreover, the maximal calcium response in assay [3] is ≥ 85 % maximal response compared to Substance P. Moreover, in assay [4], the maximal calcium response is ≥ 85 % maximal response compared to Neurokinin A.

B2: Compound E (Asp-Arg-Phe-Val-gc-Met-NH2) (peptide)
peptide: DRFV[gc]M-NH2
modifications: N-terminus assumed
SMILES: CSCC[C@H](NC(=O)[C@H](CC(C)C)N1CC[C@@H](NC(=O)[C@@H](NC(=O)[C@H](Cc2ccccc2)NC(=O)[C@H](CCCNC(=N)N)NC(=O)[C@@H](N)CC(=O)O)C(C)C)C1=O)C(N)=O
Regarding B2, the “hNK1R pEC50 (intracellular calcium mobilization, FLIPR, CHO cells)” value in assay [1] is 7.76. Also, in assay [2], the NK2R/NK1R selectivity ratio came out at 90 fold and the “hNK2R pEC50 (intracellular calcium mobilization, FLIPR, CHO cells)” value turned out to be 9.71. Further, the maximal calcium response in assay [3] is ≥ 85 % maximal response compared to Substance P. Further, the maximal calcium response in assay [4] was ≥ 85 % maximal response compared to Neurokinin A.

B3: Compound G (Lys-Asp-Ser-Phe-Val-gc-Nle-NH2) (peptide)
peptide: KDSFV[gc][Nle]-NH2
modifications: N-terminus assumed
SMILES: CCCC[C@H](NC(=O)[C@H](CC(C)C)N1CC[C@@H](NC(=O)[C@@H](NC(=O)[C@H](Cc2ccccc2)NC(=O)[C@H](CO)NC(=O)[C@H](CC(=O)O)NC(=O)[C@@H](N)CCCCN)C(C)C)C1=O)C(N)=O
As for B3, the “hNK1R pEC50 (intracellular calcium mobilization, FLIPR, CHO cells)” value in assay [1] was determined as 5.79. In addition, in assay [2], the NK2R/NK1R selectivity ratio worked out at 206 fold and the “hNK2R pEC50 (intracellular calcium mobilization, FLIPR, CHO cells)” value was 8.11. In assay [3], the maximal calcium response was ≥ 73 % maximal response compared to Substance P. For the same molecule, the maximal calcium response in assay [4] is ≥ 85 % maximal response compared to Neurokinin A.

B4: Compound A (Asp-Ser-Phe-Val-gc-Met-NH2) (peptide)
peptide: XDSFVM
modifications: gc = Gly-(R-gamma-lactam)-Leu, (S)-2-((R)-3-amino)-2-oxopyrrolidin-1-yl)-4-methylpantanoyl moiety, between Val and Met; C-terminal amide (Met-NH2)
For the molecule B4, the “hNK1R pEC50 (intracellular calcium mobilization, FLIPR, CHO cells)” value in assay [1] came out at 6.31. Also, the NK2R/NK1R selectivity ratio in assay [2] was 724 fold. Also, the “hNK2R pEC50 (intracellular calcium mobilization, FLIPR, CHO cells)” value in assay [2] stood at 9.17. For the same molecule, the values for the maximal calcium response in assay [3] and in assay [4] were ≥ 85 % maximal response compared to Substance P and ≥ 85 % maximal response compared to Neurokinin A, respectively.

B5: Compound D (Asp-Lys-Phe-Val-gc-Nle-NH2) (peptide)
peptide: DKFV[gc][Nle]-NH2
modifications: N-terminus assumed
SMILES: CCCC[C@H](NC(=O)[C@H](CC(C)C)N1CC[C@@H](NC(=O)[C@@H](NC(=O)[C@H](Cc2ccccc2)NC(=O)[C@H](CCCCN)NC(=O)[C@@H](N)CC(=O)O)C(C)C)C1=O)C(N)=O
For the molecule B5, the “hNK1R pEC50 (intracellular calcium mobilization, FLIPR, CHO cells)” value in assay [1] came out at 6.32. In assay [2], the NK2R/NK1R selectivity ratio is 132 fold and the “hNK2R pEC50 (intracellular calcium mobilization, FLIPR, CHO cells)” value amounted to 8.44. The maximal calcium response in assay [3] was ≥ 85 % maximal response compared to Substance P. The maximal calcium response in assay [4] is ≥ 85 % maximal response compared to Neurokinin A.

B6: Compound F (Asp-Arg-Phe-Val-gc-Nle-NH2) (peptide)
peptide: DRFV[gc][Nle]-NH2
modifications: N-terminus assumed
SMILES: CCCC[C@H](NC(=O)[C@H](CC(C)C)N1CC[C@@H](NC(=O)[C@@H](NC(=O)[C@H](Cc2ccccc2)NC(=O)[C@H](CCCNC(=N)N)NC(=O)[C@@H](N)CC(=O)O)C(C)C)C1=O)C(N)=O
As to B6, in assay [1], the “hNK1R pEC50 (intracellular calcium mobilization, FLIPR, CHO cells)” value is 6.63. Moreover, in assay [2], the NK2R/NK1R selectivity ratio is 93 fold and the “hNK2R pEC50 (intracellular calcium mobilization, FLIPR, CHO cells)” value turned out to be 8.6. The maximal calcium response in assay [3] was ≥ 85 % maximal response compared to Substance P. Moreover, the maximal calcium response in assay [4] was ≥ 85 % maximal response compared to Neurokinin A.
